This is an account of results in publication PMC9352680, “A comprehensive thermodynamic model for RNA binding by the Saccharomyces cerevisiae Pumilio protein PUF4”.

Substitutions are numbered along the chain they refer to. Numbers in names are those of the source. Bounds are passed on as bounds.

The chains are these.
T1: PUF4 RNA-binding domain (Saccharomyces cerevisiae, UniProt P25339 537-888)
T1 sequence: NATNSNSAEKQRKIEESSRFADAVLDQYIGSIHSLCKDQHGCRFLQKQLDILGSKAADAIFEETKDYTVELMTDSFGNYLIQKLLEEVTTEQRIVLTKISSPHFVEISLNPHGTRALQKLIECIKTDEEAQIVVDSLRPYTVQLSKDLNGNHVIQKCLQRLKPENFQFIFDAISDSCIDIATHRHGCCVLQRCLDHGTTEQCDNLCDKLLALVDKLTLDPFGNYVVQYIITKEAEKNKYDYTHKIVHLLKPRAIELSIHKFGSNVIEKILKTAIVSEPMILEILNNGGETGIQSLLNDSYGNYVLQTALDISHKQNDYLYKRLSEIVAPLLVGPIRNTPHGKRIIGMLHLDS

B1: Ie_S2_P5E.1_K5.1_C5.1_H5.1_[+4CTCTC]_A5.1_F5.1_T5.1 (ssRNA)
RNA: UUUGAUUAAUAUGAUAUCGUUCUUUCUUGUACUCUCUUAUUAUUCUUUCUCGAUAUCAUAUUAAUCUUU
B2: Ie_S2_P5E.1_K5.1_C5.1_H5.1_A5.1_[+6TTCCT]_F5.1_T5.1 (ssRNA)
RNA: B1 RNA with C32U, C34U, U37C
B3: Ie_S2_P5E.1_K5.1_C5.1_H5.1_A5.1_[+7CCTCT]_F5.1_T5.1 (ssRNA)
RNA: B1 RNA with C32U, C34A, U35C, U38C, A39U
B4: Ie_S2_P5E.1_K5.1_C5.1_H5.1_[+4TTCCT]_A5.1_F5.1_T5.1 (ssRNA)
RNA: B1 RNA with C32U, U35C, C36U
B5: Ie_S2_P5E.1_K5.1_C5.1_H5.1_A5.1_[+6TCTCT]_F5.1_T5.1 (ssRNA)
RNA: B1 RNA with C32U, C34U, U35C, C36U, U37C
B6: Ie_S2_P5E.1_K5.1_C5.1_H5.1_[+4TCTCT]_A5.1_F5.1_T5.1 (ssRNA)
RNA: B1 RNA with C32U, U33C, C34U, U35C, C36U
B7: Ie_S2_P5E.1_K5.1_C5.1_H5.1_A5.1_[+5TTCCT]_F5.1_T5.1 (ssRNA)
RNA: B1 RNA with C32U, C34U, U35C
B8: Ie_S2_P5E.1_K5.1_C5.1_H5.1_A5.1_[+5TCTCT]_F5.1_T5.1 (ssRNA)
RNA: B1 RNA with C32U
B9: Ie_S2_P5E.1_K5.1_C5.1_H5.1_[+4CCCTT]_A5.1_F5.1_T5.1 (ssRNA)
RNA: B1 RNA with U33C, C36U
B10: Ie_S2_P5E.1_K5.1_C5.1_H5.1_A5.1_[+7CTCTC]_F5.1_T5.1 (ssRNA)
RNA: B1 RNA with C32U, C34A, U35C, C36U, U37C, A39C
B11: Ie_S2_P5E.1_K5.1_C5.1_H5.1_A5.1_[+7TTCCT]_F5.1_T5.1 (ssRNA)
RNA: B1 RNA with C32U, C34A, C36U, U37C, U38C, A39U
B12: Ie_S2_P5E.1_K5.1_C5.1_H5.1_A5.1_[+6CCTCT]_F5.1_T5.1 (ssRNA)
RNA: B1 RNA with C32U, U35C, C36U, U37C
B13: Ie_S2_P5E.1_K5.1_C5.1_H5.1_A5.1_[+7TCTCT]_F5.1_T5.1 (ssRNA)
RNA: B1 RNA with C32U, C34A, U38C, A39U
B14: Ie_S2_P5E.1_K5.1_C5.1_H5.1_A5.1_[+5CCTCT]_F5.1_T5.1 (ssRNA)
RNA: B1 RNA with C32U, U33C
B15: Ie_S2_P5E.1_K5.1_C5.1_H5.1_A5.1_[+5CTCTC]_F5.1_T5.1 (ssRNA)
RNA: B1 RNA with C32U, U33C, C34U, U35C, C36U, U37C
B16: Ie_S2_P5E.1_K5.1_C5.1_H5.1_A5.1_[+5CCCTT]_F5.1_T5.1 (ssRNA)
RNA: B1 RNA with C32U, U33C, U35C, C36U
B17: Ie_S2_P5E.1_K5.1_C5.1_H5.1_A5.1_[+5TTT]_F5.1_T5.1 (ssRNA)
RNA: UUUGAUUAAUAUGAUAUCGUUCUUUCUUGUAUUUUUAUUAUUCUUUCUCGAUAUCAUAUUAAUCUUU
B18: Ie_S2_P5E.1_K5.1_C5.1_H5.1_A5.1_F5.1_[+9CTT]_T5.1 (ssRNA)
RNA: B17 RNA with U34A, A37C
B19: Ie_S2_P5E.1_K5.1_C5.1_H5.1_A5.1_[+6TCT]_F5.1_T5.1 (ssRNA)
RNA: B17 RNA with U35C
B20: Ie_S2_P5E.1_K5.1_C5.1_H5.1_A5.1_[+7CCT]_F5.1_T5.1 (ssRNA)
RNA: B17 RNA with U34A, U35C, U36C, A37U
B21: Ie_S2_P5E.1_K5.1_C5.1_H5.1_A5.1_[+7CTT]_F5.1_T5.1 (ssRNA)
RNA: B17 RNA with U34A, U35C, A37U
B22: Ie_S2_P5E.1_K5.1_C5.1_H5.1_A5.1_[+7TCT]_F5.1_T5.1 (ssRNA)
RNA: B17 RNA with U34A, U36C, A37U
B23: Ie_S2_P5E.1_K5.1_C5.1_H5.1_A5.1_[+7CTC]_F5.1_T5.1 (ssRNA)
RNA: B17 RNA with U34A, U35C, A37C
B24: Ie_S2_P5E.1_K5.1_C5.1_H5.1_A5.1_F5.1_[+8CCC]_T5.1 (ssRNA)
RNA: B17 RNA with U34A, U36C, A37C, U38C
B25: Ie_S2_P5E.1_K5.1_C5.1_H5.1_A5.1_F5.1_[+8CCT]_T5.1 (ssRNA)
RNA: B17 RNA with U34A, U36C, A37C
B26: Ie_S2_P5E.1_K5.1_C5.1_H5.1_A5.1_[+6TTC]_F5.1_T5.1 (ssRNA)
RNA: B17 RNA with U36C
B27: Ie_S2_P5E.1_K5.1_C5.1_H5.1_A5.1_F5.1_[+8TTT]_T5.1 (ssRNA)
RNA: B17 RNA with U34A, A37U
B28: Ib_S2_P3E.1_K3.1_C3.1_H3.1_[T1G]_[A4C]_A3.1_F3.1_T3.1 (ssRNA)
RNA: UUUGAUUAAUAUGAUAUCGUUCUUUCUGGUCUAUAUUCUUUCUCGAUAUCAUAUUAAUCUUU
B29: Ic_S2_P3E.1_K3.1_C3.1_H3.1_A3.1_[T5C]_F3.1_T3.1 (ssRNA)
RNA: B28 RNA with G28U, C31A, U32C
B30: Ib_S2_P3E.1_K3.1_C3.1_H3.1_[G2C]_[T3C]_A3.1_F3.1_T3.1 (ssRNA)
RNA: B28 RNA with G28U, G29C, U30C, C31A
B31: Ib_S2_P3E.1_K3.1_C3.1_H3.1_[G2A]_[T3C]_A3.1_F3.1_T3.1 (ssRNA)
RNA: B28 RNA with G28U, G29A, U30C, C31A
B32: Ib_S2_P3E.1_K3.1_C3.1_H3.1_[G2T]_[T3A]_A3.1_F3.1_T3.1 (ssRNA)
RNA: B28 RNA with G28U, G29U, U30A, C31A
B33: Ib_S2_P3E.1_K3.1_C3.1_H3.1_[G2C]_[A4C]_A3.1_F3.1_T3.1 (ssRNA)
RNA: B28 RNA with G28U, G29C
B34: Ie_S2_P5E.1_K5.1_C5.1_H5.1_A5.1_[+7CC]_F5.1_T5.1 (ssRNA)
RNA: UUUGAUUAAUAUGAUAUCGUUCUUUCUUGUAUUACCUUAUUCUUUCUCGAUAUCAUAUUAAUCUUU
B35: Ie_S2_P5E.1_K5.1_C5.1_H5.1_A5.1_F5.1_[+9TT]_T5.1 (ssRNA)
RNA: B34 RNA with C35U, C36U
B36: Ie_S2_P5E.1_K5.1_C5.1_H5.1_A5.1_[+7TC]_F5.1_T5.1 (ssRNA)
RNA: B34 RNA with C35U
B37: Ie_S2_P5E.1_K5.1_C5.1_H5.1_A5.1_F5.1_[+8TC]_T5.1 (ssRNA)
RNA: B34 RNA with C35U, C36U, U37C
B38: Ie_S2_P5E.1_K5.1_C5.1_H5.1_A5.1_[+6TCTC]_F5.1_T5.1 (ssRNA)
RNA: UUUGAUUAAUAUGAUAUCGUUCUUUCUUGUAUUUCUCAUUAUUCUUUCUCGAUAUCAUAUUAAUCUUU
B39: Ie_S2_P5E.1_K5.1_C5.1_H5.1_A5.1_[+7CCTC]_F5.1_T5.1 (ssRNA)
RNA: B38 RNA with U34A, U36C, C37U, A38C
B40: Ie_S2_P5E.1_K5.1_C5.1_H5.1_A5.1_[+6CCTC]_F5.1_T5.1 (ssRNA)
RNA: B38 RNA with U34C
B41: Ie_S2_P5E.1_K5.1_C5.1_H5.1_A5.1_[+7TCTC]_F5.1_T5.1 (ssRNA)
RNA: B38 RNA with U34A, C35U, U36C, C37U, A38C
B42: Ie_S2_P5E.1_K5.1_C5.1_H5.1_A5.1_[+7CTCT]_F5.1_T5.1 (ssRNA)
RNA: B38 RNA with U34A, A38U
B43: Ie_S2_P5E.1_K5.1_C5.1_H5.1_A5.1_[+7CCCT]_F5.1_T5.1 (ssRNA)
RNA: B38 RNA with U34A, U36C, A38U
B44: Ie_S2_P5E.1_K5.1_C5.1_H5.1_A5.1_[+6CCCT]_F5.1_T5.1 (ssRNA)
RNA: B38 RNA with U34C, U36C, C37U
B45: Ie_S2_P5E.1_K5.1_C5.1_H5.1_A5.1_[+7TTCC]_F5.1_T5.1 (ssRNA)
RNA: B38 RNA with U34A, C35U, A38C
B46: Ie_S2_P5E.1_K5.1_C5.1_H5.1_A5.1_F5.1_[+9T]_T5.1 (ssRNA)
RNA: UUUGAUUAAUAUGAUAUCGUUCUUUCUUGUAUUAUUUAUUCUUUCUCGAUAUCAUAUUAAUCUUU
B47: Ie_S2_P5E.1_K5.1_C5.1_H5.1_A5.1_F5.1_[+8C]_T5.1 (ssRNA)
RNA: B46 RNA with U36C

This data set has as its target T1, PUF4 RNA-binding domain. As to the kind of experiment: Mg; RNA-MaP; 20 mM Na-HEPES pH 7.4, 30 mM KOAc, 0.75 mM MgCl2, 0.1% Tween-20, 5% glycerol, 0.1 mg/mL BSA, 2 mM DTT; 25 C; 0.0125-409.6 nM protein. The conditions noted are these: tags: N-His6-TEV cleaved; C-SNAP kept, Cy3B-labelled; label: tethered on chip by stalled RNA polymerase.
The Kd is the concentration at which binding is half-saturated. A low value points to higher affinity. B1 returned a Kd of 7.93 nM.

In turn, B2 gave a Kd of 12.3 nM.

For B3, the dissociation constant Kd was 57.6 nM.

Take B4: the Kd stood at 18.1 nM.

B5: binding was characterised by a dissociation constant (Kd) of 12.9 nM.

For the molecule B6, the equilibrium dissociation constant (Kd) came to 10.5 nM.

For B7, binding was put at a Kd of 13.2 nM.

On to B8, for which the Kd worked out at 9.67 nM.

Take B9: the dissociation constant Kd was found to be 6.38 nM.

In the case of B10, the Kd turned out to be 47.3 nM.

Consider B11, for which the Kd is 7.84 nM. This Kd is about 6-fold lower than that of the molecule before.

For the molecule B12, the Kd was 20.8 nM.

In turn, B13 gave a Kd of 17.2 nM.

In the case of B14, binding was characterised by a dissociation constant (Kd) of 12.8 nM.

For B15, the dissociation constant (Kd) was found to be 13.3 nM. This Kd and that of the molecule before are within 1.5-fold of each other.

On to B16, for which binding was put at a Kd of 16.3 nM.

The molecule B17 showed a Kd of 1.6 nM. This Kd lies about 10-fold lower than the previous one.

For B18, the affinity, expressed as Kd, was 10.5 nM.

Consider B19, for which the equilibrium dissociation constant (Kd) was determined as 2.42 nM.

Molecule B20 showed a Kd of 31.6 nM.

B21 showed a Kd of 25.2 nM.

The molecule B22 returned a Kd of 15.8 nM.

B23 returned a Kd of 42.2 nM. Compared with the last molecule, the Kd is about 2.7-fold higher.

Molecule B24 showed a dissociation constant (Kd) of 12.8 nM.

B25 registered a Kd of 16.6 nM.

Turning to B26, binding was put at a Kd of 28.6 nM.

B27: the affinity, expressed as Kd, was 8.05 nM.

Molecule B28 displayed a dissociation constant (Kd) greater than 2300 nM.

For B29, the Kd amounted to 1.76 nM.

In turn, B30 returned an equilibrium dissociation constant (Kd) greater than 2300 nM.

B31 had a Kd greater than 2300 nM.

B32 had a Kd of 1460 nM.

With B33, the affinity, expressed as Kd, was 2150 nM.

For the molecule B34, the dissociation constant Kd turned out to be 58.9 nM. Against the preceding molecule, the Kd is about 37-fold lower.

B35 registered a Kd of 8.73 nM.

In turn, B36 returned a Kd of 11.8 nM.

Molecule B37 came in with a Kd of 10.3 nM.

B38 had an equilibrium dissociation constant (Kd) of 75.2 nM.

For B39, the Kd came out at 49 nM.

For B40, the Kd was 99.6 nM.

B41 gave an equilibrium dissociation constant (Kd) of 18.3 nM.

On to B42, for which the equilibrium dissociation constant (Kd) was 51.9 nM.

On to B43, for which the dissociation constant (Kd) was determined as 74 nM. This Kd and that of the molecule before are within 1.5-fold of each other.

With B44, the affinity, expressed as Kd, was 15.6 nM.

For the molecule B45, the Kd worked out at 10.1 nM. Compared with the last molecule, the Kd is about 1.5-fold lower.

B46: the Kd was 5.9 nM.

B47 yielded an equilibrium dissociation constant (Kd) of 11.6 nM. This Kd is about 2-fold higher than that of the molecule before.
